According to paper PMC8881611, “A mechanism of origin licensing control through autoinhibition of S. cerevisiae ORC·DNA·Cdc6” (Nature Communications, 2022):

Assays:
Assay in all cases: pull-down; amylose pulldown, ORC with MBP-tagged Orc4 as bait; 0.5 uM ScORC, 0.5 uM 84 bp ARS1 dsDNA, 1 uM ScCdc6, 10 uM ScMcm7 (titrations 1.5, 5, 10 uM), 2 mM ATPγS; 25 mM HEPES pH 7.5, 300 mM potassium acetate, 10 mM magnesium acetate, 1 mM DTT; on ice; maltose elution, Coomassie-stained SDS-PAGE
Details in all cases: both partners purified
[1] = molecular target: T1, ScORC·DNA·Cdc6 with MBP-tagged ORC holding Orc6 ΔCBN (Orc6Δ1-120), ORC dephosphorylated with λ phosphatase (S. cerevisiae, UniProt P54784 1-914; P32833 1-620; P54790 1-616; P54791 1-529; P50874 1-479; P38826 …, ORC treated with λ phosphatase | ORC treated with λ phosphatase)
T1 construct: Orc1, S. cerevisiae, wild type; Orc2, S. cerevisiae, wild type; Orc3, S. cerevisiae, wild type; Orc4, S. cerevisiae, wild type; Orc5, S. cerevisiae, wild type; Orc6, S. cerevisiae, truncation Orc6Δ1-120 (lacks the N-terminal cyclin box fold); Cdc6, S. cerevisiae, wild type; ORC dephosphorylated before assembly with DNA, Cdc6 and ATPγS; also called Orc6 ΔCBN, λ phosphatase; Orc6^ΔN120; source: …

[2] = molecular target: T2, ScORC·DNA·Cdc6 with MBP-tagged ORC holding Orc6 ΔCBN (Orc6Δ1-120), ORC untreated (S. cerevisiae, UniProt P54784 1-914; P32833 1-620; P54790 1-616; P54791 1-529; P50874 1-479; P38826 …)
T2 construct: Orc1, S. cerevisiae, wild type; Orc2, S. cerevisiae, wild type; Orc3, S. cerevisiae, wild type; Orc4, S. cerevisiae, wild type; Orc5, S. cerevisiae, wild type; Orc6, S. cerevisiae, truncation Orc6Δ1-120 (lacks the N-terminal cyclin box fold); Cdc6, S. cerevisiae, wild type; The unstructured linker region of Orc6ΔCBN is prone to proteolytic cleavage during expression and purification; also called …

[3] = molecular target: T3, ScORC·DNA·Cdc6 with MBP-tagged ORC holding Orc6 ΔCBN/Δlinker (Orc6Δ1-269), ORC phosphorylated by CDK (S. cerevisiae, UniProt P54784 1-914; P32833 1-620; P54790 1-616; P54791 1-529; P50874 1-479; P38826 …, ORC treated with CDK; phosphorylated sites not given)
T3 construct: Orc1, S. cerevisiae, wild type; Orc2, S. cerevisiae, wild type; Orc3, S. cerevisiae, wild type; Orc4, S. cerevisiae, wild type; Orc5, S. cerevisiae, wild type; Orc6, S. cerevisiae, truncation Orc6Δ1-269 (lacks the N-terminal cyclin box fold and the flexible linker); Cdc6, S. cerevisiae, wild type; ORC phosphorylated by CDK before assembly with DNA, Cdc6 and ATPγS; also called Orc6 ΔCBN/Δlinker, …

[4] = molecular target: T4, ScORC·DNA·Cdc6 with MBP-tagged ORC holding Orc6 ΔCBN/Δlinker (Orc6Δ1-269), ORC untreated (S. cerevisiae, UniProt P54784 1-914; P32833 1-620; P54790 1-616; P54791 1-529; P50874 1-479; P38826 …)
T4 construct: Orc1, S. cerevisiae, wild type; Orc2, S. cerevisiae, wild type; Orc3, S. cerevisiae, wild type; Orc4, S. cerevisiae, wild type; Orc5, S. cerevisiae, wild type; Orc6, S. cerevisiae, truncation Orc6Δ1-269 (lacks the N-terminal cyclin box fold and the flexible linker); Cdc6, S. cerevisiae, wild type; also called Orc6^ΔN269; source: MBP-ORC: High5 insect cells, purified (no TEV cleavage); Cdc6: …

[5] = molecular target: T5, ScORC·DNA·Cdc6 with MBP-tagged ORC (full-length Orc6), ORC dephosphorylated with λ phosphatase (S. cerevisiae, UniProt P54784 1-914; P32833 1-620; P54790 1-616; P54791 1-529; P50874 1-479; P38826 …, ORC treated with λ phosphatase | ORC treated with λ phosphatase)
T5 construct: Orc1, S. cerevisiae, wild type; Orc2, S. cerevisiae, wild type; Orc3, S. cerevisiae, wild type; Orc4, S. cerevisiae, wild type; Orc5, S. cerevisiae, wild type; Orc6, S. cerevisiae, wild type; Cdc6, S. cerevisiae, wild type; ORC (10 uM) dephosphorylated with 16.7 units/uL λ phosphatase, 10 min, 30 °C, before assembly with DNA, Cdc6 and ATPγS; also called dephosphorylated MBP-ORC·DNA·Cdc6; source: …

Measured: binding result

B1: S. cerevisiae Mcm7 (ScMcm7) (natural protein, UniProt P38132 1-845, looked up)
chain: MSAALPSIQLPVDYNNLFNEITDFLVTFKQDTLSSDATRNENEDENLDAENIEQHLLEKGPKYMAMLQKVANRELNSVIIDLDDILQYQNEKFLQGTQADDLVSAIQQNANHFTELFCRAIDNNMPLPTKEIDYKDDVLDVILNQRRLRNERMLSDRTNEIRSENLMDTTMDPPSSMNDALREVVEDETELFPPNLTRRYFLYFKPLSQNCARRYRKKAISSKPLSVRQIKGDFLGQLITVRGIITRVSDVKPAVEVIAYTCDQCGYEVFQEVNSRTFTPLSECTSEECSQNQTKGQLFMSTRASKFSAFQECKIQELSQQVPVGHIPRSLNIHVNGTLVRSLSPGDIVDVTGIFLPAPYTGFKALKAGLLTETYLEAQFVRQHKKKFASFSLTSDVEERVMELITSGDVYNRLAKSIAPEIYGNLDVKKALLLLLVGGVDKRVGDGMKIRGDINVCLMGDPGVAKSQLLKAICKISPRGVYTTGKGSSGVGLTAAVMKDPVTDEMILEGGALVLADNGICCIDEFDKMDESDRTAIHEVMEQQTISISKAGINTTLNARTSILAAANPLYGRYNPRLSPLDNINLPAALLSRFDILFLMLDIPSRDDDEKLAEHVTYVHMHNKQPDLDFTPVEPSKMREYIAYAKTKRPVMSEAVNDYVVQAYIRLRQDSKREMDSKFSFGQATPRTLLGIIRLSQALAKLRLADMVDIDDVEEALRLVRVSKESLYQETNKSKEDESPTTKIFTIIKKMLQETGKNTLSYENIVKTVRLRGFTMLQLSNCIQEYSYLNVWHLINEGNTLKFVDDGTMDTDQEDSLVSTPKLAPQTTASANVSAQDSDIDLQDA
notes: Mcm7, S. cerevisiae; migrates as a doublet on SDS-PAGE; source: E. coli BL21 RIL, purified (HisTrap, amylose, TEV cleavage, HisTrap, gel filtration); not shown: His6, N-terminal, cleaved; MBP, N-terminal, cleaved
binds: all assays above
